T1: His6-SUMO-Sse1 (yeast (S. cerevisiae), UniProt P32589 1-693)
T1 construct: Sse1, yeast Hsp110 nucleotide exchange factor, Uniprot ID P32589; Held on the Ni-NTA BLI sensor through the His6-SUMO tag; also called His-Sse1; His-See1; source: recombinant, purified as Sse1 with the proteolytic cleavage of the tag omitted
T1 sequence (looked up): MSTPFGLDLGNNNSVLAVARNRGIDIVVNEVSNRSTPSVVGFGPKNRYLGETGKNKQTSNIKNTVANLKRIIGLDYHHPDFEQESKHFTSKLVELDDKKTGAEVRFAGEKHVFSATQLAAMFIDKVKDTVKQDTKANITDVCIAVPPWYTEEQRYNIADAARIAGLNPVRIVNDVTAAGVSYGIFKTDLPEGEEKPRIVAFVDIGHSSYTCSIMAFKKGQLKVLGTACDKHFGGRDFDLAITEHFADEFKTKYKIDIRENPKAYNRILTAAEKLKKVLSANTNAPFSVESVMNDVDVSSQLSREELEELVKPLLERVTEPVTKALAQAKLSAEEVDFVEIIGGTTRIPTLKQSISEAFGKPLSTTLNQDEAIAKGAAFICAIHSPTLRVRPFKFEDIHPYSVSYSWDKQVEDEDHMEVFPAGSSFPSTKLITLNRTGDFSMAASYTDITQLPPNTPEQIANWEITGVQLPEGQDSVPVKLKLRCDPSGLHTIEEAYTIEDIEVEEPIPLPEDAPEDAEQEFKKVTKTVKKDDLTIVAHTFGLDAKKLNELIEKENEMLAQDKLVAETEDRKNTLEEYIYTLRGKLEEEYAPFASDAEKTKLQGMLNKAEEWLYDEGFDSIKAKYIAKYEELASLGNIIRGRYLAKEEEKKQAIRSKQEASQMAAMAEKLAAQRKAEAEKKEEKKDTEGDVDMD

B1: Ssa1 (natural protein)
chain: not shown
notes: Ssa1, yeast Hsp70 chaperone, Uniprot ID P10591; also called Hsp70; yeast Hsp70; source: recombinant, expressed from pCA533-His6-SUMO-SSA1, purified using published protocols (Andréasson et al., 2008a)
B2: Sse1 (natural protein, yeast (S. cerevisiae), UniProt P32589 1-693, looked up)
chain: T1 sequence (looked up)
B3: Sis1 immobilised through the His6-SUMO tag (natural protein, yeast (S. cerevisiae), UniProt P25294 1-352, looked up)
chain: MVKETKLYDLLGVSPSANEQELKKGYRKAALKYHPDKPTGDTEKFKEISEAFEILNDPQKREIYDQYGLEAARSGGPSFGPGGPGGAGGAGGFPGGAGGFSGGHAFSNEDAFNIFSQFFGGSSPFGGADDSGFSFSSYPSGGGAGMGGMPGGMGGMHGGMGGMPGGFRSASSSPTYPEEETVQVNLPVSLEDLFVGKKKSFKIGRKGPHGASEKTQIDIQLKPGWKAGTKITYKNQGDYNPQTGRRKTLQFVIQEKSHPNFKRDGDDLIYTLPLSFKESLLGFSKTIQTIDGRTLPLSRVQPVQPSQTSTYPGQGMPTPKNPSQRGNLIVKYKVDYPISLNDAQKRAIDENF
notes: Sis1, yeast class B J-domain protein, Uniprot ID P25294; also called His-Sis1; class B JDP

How the values were obtained:
Sse1 = biological target: B2; assay: BLI; His-Sis1 (0.4 µM, to saturation) on the Ni-NTA sensor through the His6-SUMO tag; 1 µM Ssa1 with increasing concentrations of Sse1 or Sse1-2; buffer A with 5 mM ATP and 2 mM DTT; details: both partners purified
His6-SUMO-Sse1 = biological target: T1, His6-SUMO-Sse1; assay: BLI; His-Sse1 (2.5 µM) or His-Sse1-2 (1 µM) on the Ni-NTA sensor through the His6-SUMO tag; Ssa1 at 32-16,000 nM; level of binding fitted with a one site-specific binding model; buffer A with 5 mM ATP and 2 mM DTT; details: both partners purified
Ssa1 [1] = biological target: B1; assay: cell-based or functional assay
Ssa1, sequence (P10591 whole entry): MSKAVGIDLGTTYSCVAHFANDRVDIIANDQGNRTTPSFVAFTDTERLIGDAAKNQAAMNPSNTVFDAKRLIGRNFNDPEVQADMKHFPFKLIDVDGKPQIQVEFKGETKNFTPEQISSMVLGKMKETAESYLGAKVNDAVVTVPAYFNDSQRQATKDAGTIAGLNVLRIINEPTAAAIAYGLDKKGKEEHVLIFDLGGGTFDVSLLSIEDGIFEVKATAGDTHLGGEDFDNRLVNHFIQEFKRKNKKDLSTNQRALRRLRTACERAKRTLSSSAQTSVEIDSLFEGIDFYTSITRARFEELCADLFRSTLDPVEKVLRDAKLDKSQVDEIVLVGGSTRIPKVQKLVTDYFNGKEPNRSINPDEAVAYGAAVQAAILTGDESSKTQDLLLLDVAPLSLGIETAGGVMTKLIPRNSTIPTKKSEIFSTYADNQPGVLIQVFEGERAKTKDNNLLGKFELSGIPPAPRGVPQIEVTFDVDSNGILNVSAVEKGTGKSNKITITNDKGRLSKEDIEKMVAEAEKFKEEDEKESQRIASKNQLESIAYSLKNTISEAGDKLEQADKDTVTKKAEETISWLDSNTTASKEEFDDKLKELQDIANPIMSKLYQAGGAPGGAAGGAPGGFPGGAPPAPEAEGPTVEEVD

Ssa1 [2] = biological target: B1; assay: BLI; His-Sis1 (0.4 µM, to saturation) on the Ni-NTA sensor through the His6-SUMO tag; 1 µM Ssa1 with increasing concentrations of Sse1 or Sse1-2; buffer A with 5 mM ATP and 2 mM DTT; details: both partners purified

Binder: B1
- binding result (Sse1): binds
- binding result (His6-SUMO-Sse1): binds

Binder: B2
- inhibition of the refolding of aggregated luciferase by Ssa1-Ydj1 (1 µM each), titration of Sse1, activity after 1 hr (Ssa1 [1]): 0.1 µM

Binder: B3
- binding result (Ssa1 [2]): binds
